The values below come from article PMC12316982 (Nature Communications, 2025).

For this assay, the target named is unmodified NA of A/Vietnam/1203/2004 (VN04, H5N1) (Influenza A virus A/Vietnam/1203/2004 …, UniProt Q6DPL2, strain). Briefly: ELISA. Conditions: both partners purified.

Where a chain is given by its changes, count along the chain named.

B1: NCS.1.1 (human IgG1) (antibody, V domains shown)
VH: QVQLQESGPRLVKPSETLSLTCSVSGESISSGGYYWTWIRQHPGKGLEWIGNIFDTGSTDYSPSLKTRLTISIDTSKNQFYLRLNSATAADTAVYYCARVGFSLETDRPYYLGLDVWGQGTTVTVSS
VL: DIVMTQSPLSLPVTPGEPASISCRSSQSLLHSNGYTYLDWYLQKPGQSPQLLISFTSNRASGVPDRFSGSGSGTYFTLKISRVEAEDVGVYYCMQAVQTPWTFGQGTKVEIK
For the molecule B1, the binding result is listed as “binds”.

B2: NCS.1 (human IgG1) (antibody, V domains shown)
VH: B1 VH with Q5P, D60H, F102Y, L112F
VL: B1 VL with S54Y, F55L, T56A
B2: the binding result is “binds”.

B3: NCS.1.3 (human IgG1) (antibody, V domains shown)
VH: B1 VH with N85T
VL: B1 VL with S10T, S54Y, T56A, T99S
With B3, the binding result is given as “binds”.
